Data as given in patent publication US20240424117A1, “Paclitaxel Prodrug, Preparation Method and Application Thereof” (WEST CHINA HOSPITAL, SICHUAN UNIVERSITY, priority 2023, published 2024).

Experiments:
Type in all cases: physicochemical
[1] = Particle size, particle size distribution and zeta potential of micelles by dynamic light scattering; settings: prodrug micelles in aqueous solution, 25° C.; for PDI / Size(nm): DLS
Method: The particle size, particle size distribution and zeta potential of micelles were measured by Zetasizer Nano ZS Dynamic light scattering (DLS) potentiometer (Malvern, UK) at 25° C. and 90° scattering angle.

[2] = Release performance of prodrug (dialysis, HPLC determination of paclitaxel); settings: for time to almost complete release of paclitaxel: 37° C.; for change of release rate after the addition of GSH: with GSH (10 mM) versus without
Method: The testing instrument was Agilent 1260 series (USA), with a reversed phase C18 column (4.6×100 mm). The mobile phase was acetonitrile/water (80/20), the column temperature was 30° C., the flow rate was 1.0 mL/min, and the detection wavelength was 227 nm.
Firstly, HPLC was used to detect the response of PTX in this mobile phase. After accurately weighing a certain amount of paclitaxel, PTX was prepared with the mixed solvent of acetonitrile and ultrapure water (9/1, v/v) into a series of standard solutions at different concentrations. Linear regression was performed between the measured response peak area A and concentration C, to obtain the standard curve of the PTX solution. The curve equation was fitted, and the concentration-peak area curve equation of PTX was Y=25.025X, with a correlation coefficient of R^2=0.9996.
3 mL of drug-loaded micelles were loaded into a dialysis bag (MWCO=1000), and the release medium was PBS containing 30% ethanol (V/V) (pH 5.0 or 7.4). The release of paclitaxel from self-assembled nanoparticles of prodrug was investigated with or without the addition of glutathione (10 mM GSH). The specific procedures are as follows: 3 mL of prodrug nanoparticle solution (1 mg/mL) was placed into a dialysis bag (MW1000) and added to 30 mL of the release media, and then the entire system was transferred into a constant temperature shaker (37° C., 110 rpm). 1 mL of release solution was collected at different pre-determined time points, taking 3 parallel samples at each time point. After sampling, the same volume of pure PBS or PBS containing 10 mM GSH (10 Mm) was supplemented, and the drug concentration was determined by HPLC. The cumulative release was calculated using the following formula:
[formula] • wherein R is the cumulative release amount; Vi is the total volume of the solution before the i-th sampling; Ci is the total concentration of the solution before the i-th sampling; Vsj is the jth sampling volume; Cj is the total concentration of the solution before the jth sampling, i=2, 3, 4 . . .; j=i−1.

[3] = Transmission electron microscopy of micellar morphology; settings: TEM (FIG. 3)
Method: A small amount of micellar solution fully mixed under ultrasonic was added dropwise onto the copper mesh coated with Formvar film, and then dyed with 1% (w/v) phosphotungstic acid staining solution for 3 min. Subsequently, the excess liquid was absorbed with filter paper, and the copper mesh was allowed to dry naturally. Then, Tecnai G2 F20 S-TWIN transmission electron microscopy (FEI Corporation, USA) was used to observe the micellar morphology, and the acceleration voltage was 75 KV.

[4] = Study on the stability of micelles in vitro (PBS or added glutathione, DLS); settings: GSH added, 37° C. shaker, DLS (FIG. 5)
Method: In order to study the stability of micelles in vitro, the micellar solution was dropped into PBS simulating the human physiological environment, or a certain amount of glutathione was added. All samples were placed in a 37° C. constant temperature shaker (110 rpm), and the stability of micelles was studied by dynamic light scattering at the pre-determined time points.

[5] = acidic pH 5.0, with GSH (10 mM)
[6] = neutral pH 7.4, with GSH (10 mM)

| Substance | Zeta Potential(mV) [1] | PDI [1] | Size(nm) [1] | time to almost complete release of paclitaxel [2, 5] | time to almost complete release of paclitaxel [2, 6] | change of release rate after the addition of GSH [2] | micelle morphology and dispersion [3] | micelle state (particle size and PDI) after addition of glutathione [4] |
| --- | --- | --- | --- | --- | --- | --- | --- | --- |
| paclitaxel-adipic acid-polyethylene glycol [PAP] | −13.2 ± 0.6 mV | 0.103 ± 0.037 | 109.43 ± 0.94 nm |  |  |  |  |  |
| paclitaxel-dithiodipropionic acid-polyethylene glycol-RGD Peptide [PDPR] | −7.38 ± 0.8 mV | 0.065 ± 0.012 | 114.63 ± 1.53 nm | 144 h | 120 h | significantly accelerated | uniform particle size and dispersion | significantly disintegrated |
| paclitaxel-dithiodipropionic acid-polyethylene glycol [PDP] | −18.1 ± 0.8 mV | 0.166 ± 0.003 | 129.07 ± 1.76 nm | 144 h | 120 h | significantly accelerated |  | significantly disintegrated |
| paclitaxel-adipic acid-polyethylene glycol-RGD peptide [PAPR] | −9.91 ± 0.3 mV | 0.110 ± 0.002 | 117.93 ± 5.57 nm |  |  |  |  |  |
